Test results published in PMC7959530.

Biological target: asialofetuin (UniProt P12763)
Test: ELISA

Sequence of UniProt P12763 (P12763 19-359): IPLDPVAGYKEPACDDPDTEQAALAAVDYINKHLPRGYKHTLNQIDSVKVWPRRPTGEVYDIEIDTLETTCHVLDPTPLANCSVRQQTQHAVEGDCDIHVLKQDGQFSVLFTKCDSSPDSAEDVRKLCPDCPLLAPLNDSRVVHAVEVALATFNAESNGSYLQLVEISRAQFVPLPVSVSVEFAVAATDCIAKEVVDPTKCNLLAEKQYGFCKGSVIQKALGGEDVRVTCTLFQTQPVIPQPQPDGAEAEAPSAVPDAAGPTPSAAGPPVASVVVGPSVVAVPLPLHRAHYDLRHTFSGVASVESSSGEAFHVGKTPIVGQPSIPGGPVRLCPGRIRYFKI

With “PX-Gal3_(Δ116) (fusion protein of APEX2 and galectin-3 lacking the N-terminal domain) (domain or fragment)” the EC50 was 140 nM.
